Experimental data as given in patent US20230121197A1, “ANTIBODIES SPECIFICALLY BINDING THE CARBOXYMETHYLATED CATALYTIC SUBUNIT OF PROTEIN PHOSPHATASE 2A” (Medizinische Universität Wien, priority 2020, published 2023).

Biological target: α-carboxymethylated PP2Ac (Homo sapiens, UniProt P67775)
Assay: IHC tissue microarray analysis of localized and metastatic prostate cancer tissue, Allred scoring
Parameters: IHC tissue microarray analyses of prostate cancer tissue with the 7C10-C5 antibody; from tissue; host or cells: localized and metastatic prostate cancer tissue (tissue microarray, FFPE)
Description: Immunohistochemical staining was performed on the DAKO Autostainer (DAKO, Carpinteria, Calif.) using Envision+ or liquid streptavidin-biotin and diaminobenzadine (DAB) as the chromogen. De-paraffinized sections were labeled with mouse monoclonal antibody 7C10-C5 (1:200) overnight at 4 C. Microwave 10 mM Tris HCl, pH9 containing 1 mM EDTA epitope retrieval was used prior to staining. Appropriate negative (no primary antibody) and positive controls (pancreas) were stained in parallel with each set of slides studied. Peptide competition studies were performed using 2 peptides ([…]*) (SEQ ID NO:115) differing in the methylation status at position L (marked with a *); FIG. 13E: Peptides were incubated at ambient temperature for 60 mins at 10-1000× molar ratios before being applied to the slide. FIG. 13F: Before being stained, slides were incubated in freshly made 200 mM NaOH for 10 mins at 4° C. and then neutralized by several washes in TBST.
Stained slides were scanned using an APERIO AT2 (Leica) and the digital images imported into QuPath (Bankhead et al., 2017). TMA cores were analyzed for percentage of cells staining and intensity. In FIGS. 13E and F, higher visibility of the dark cell nuclei indicates weaker α-carboxymethylated PP2Ac staining.
The assembly of trimeric tumor-suppressive PP2A holoenzymes is promoted/facilitated by PP2Ac α-carboxymethylation. The PP2Ac α-carboxymethylation levels correlate positively with the levels of methylation-sensitive trimeric PP2A holoenzymes. A truly specific anti-methyl-PP2Ac antibody (7C10-C5) can be used to determine the α-carboxymethylated PP2Ac levels in normal and disease tissue by IHC analyses of tissue microarrays of cancer, normal tissues and tissues obtained from other disease states including but not limited to heart disease, Alzheimers disease, and diabetes. The PP2A methylation status in disease tissue can be graded using the Allred scoring system that scores the proportion of cells that stain by IHC as well as the intensity of the IHC staining. […] Allied scoring is calculated the following way: […]

[1] = IHC, mean±standard deviation, 12 samples

Sequence of α-carboxymethylated PP2Ac (P67775 whole entry): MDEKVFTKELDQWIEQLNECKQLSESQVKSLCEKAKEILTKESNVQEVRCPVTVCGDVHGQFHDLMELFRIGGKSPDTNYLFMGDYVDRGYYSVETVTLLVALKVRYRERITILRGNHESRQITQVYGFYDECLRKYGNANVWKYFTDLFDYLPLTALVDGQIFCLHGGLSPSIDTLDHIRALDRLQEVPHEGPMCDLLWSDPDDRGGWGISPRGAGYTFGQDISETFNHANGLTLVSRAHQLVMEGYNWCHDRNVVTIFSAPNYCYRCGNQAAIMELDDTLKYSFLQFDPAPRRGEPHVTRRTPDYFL

B1: 7C10-C5: α-carboxymethylation specific mouse monoclonal IgG1 antibody from single clone hybridoma 7C10-C5 (DSM ACC3350) (antibody)
heavy: MYRMQLLSCIALSLALVTNSDVQLQESGPGLVKPSQSLSLTCSVTGYSITSGYYWNWIRQFPGNKLEWMGYISYDGSNNYNPSLKNRISITRDTSKNQFFLKLNSVTTEDTATYYCAGRFAYWGQGTLVTVSAAKTTAPSVYPLAPVCGDTTGSSVTLGCLVKGYFPEPVTLTWNSGSLSSGVHTFPAVLQSDLYTLSSSVTVTSSTWPSQSITCNVAHPASSTKVDKKIEPRGPTIKPCPPCKCPAPNLLGGPSVFIFPPKIKDVLMISLSPIVTCVVVDVSEDDPDVQISWFVNNVEVHTAQTQTHREDYNSTLRVVSALPIQHQDWMSGKEFKCKVNNKDLPAPIERTISKPKGSVRAPQVYVLPPPEEEMTKKQVTLTCMVTDFMPEDIYVEWTNNGKTELNYKNTEPVLDSDGSYFMYSKLRVEKKNWVERNSYSCSVVHEGLHNHHTTKSFSRTPGK
light: MDMRVPAQLLGLLLLWLSGARCDVLMTQTPLSLPVSLGDQASISCRSSQSIVHSNGNTYLEWYLQKPGQSPKLLIYKVSNRFSGVPDRFSGSGSGTDFTLKINRVEAEDLGVYYCFQGSHVPWTFGGGTKLEIKADAAPTVSIFPPSSEQLTSGGASVVCFLNNFYPKDINVKWKIDGSERQNGVLNSWTDQDSKDSTYSMSSTLTLTKDEYERHNSYTCEATHKTSTSPIVKSFNRNEC
modifications: Amino acid sequence of the recombinant 7C10-C5 heavy chain; Amino acid sequence of the recombinant 7C10-C5 light chain
- average Allred score, localized prostate cancer tissues [1]: 2.2±2.3
- average Allred score, metastatic prostate cancer tissues [1]: 0.4±1.4
- discrimination between localized and metastatic prostate cancer by IHC staining (tissue microarray, Allred score): significantly lower levels
